This passage reports ratio to parent results from article PMC8542387 (2021).

Sequences and labels used below:
B1: Mip1-myc (wild type) [S. pombe] / FLAG-tagged Tor2 kinase [S. pombe] (parent complex)
chain 1: MNDRISEVSGSSRARRSVLSYGTTETGSDRYTENSNIATENGVDTASSMIDGIQSGFPQPRHGFEEEYNNAEYINMLEQVFYMYYTDKRHRGVISKKNAEPTETIHDWRMRERLKTVSAALLVCLNIGVDPPDVIKPNPAAKYECWIDPFSLPASKALEAIGKNLQQQYETLSMRTRYRHYLDPAIEEVKKLCIGQRRNAKEERILFHYNGHGVPMPTASGEIWVFNKNYTQYIPVSLYDLQSWLGAPCIYVYDCSAAGNIIVNFNRFAEQRDKEALRIAKQNPNVLAMPSHTSCIQLAACGPKETLPMNPDLPADLFTSCLTSPIEISVRWYVLQNPFPNKLNLNMLLKIPGRLQDRRTPLGELNWIFTAITDTIAWNVFPKHLFRRLFRQDLMVAALFRNFLLAERIMLVHSCHPQSSPELPPTHDHPMWNSWDLAIDNCLSQLPDMLDAESKGIAYEYKHSTFFSEQLTAFEVWLSQGLISRKPPDQLPLVLQVLLSQVHRLRALILLSKFLDLGVWAVDLALSIGIFPYVLKLLQSPAIELKPVLVFIWARILAVDDSCQADLLKDNGYGYFVQILNPNSSIFPSSNISEHRAMCAFILSVFCRGFPQGQLACLNPQVLSHCLSHLNSPDSLLRQWACLCISQLWENYSEAKWSGTRDNAHVKLAEIIVDSVPEVRASVLTAFTTFLGFPEKTEEVVAVETYIAIAALAALSDASPLVRHELVIFLSHFVVNYKKQLMVVAYESSLADILEKKNHNSISASTIYETVWQAVLVLAADPSIEISLAAEAIINYVYQSMLNSELRESFLAFLLQHLPALHKASLSKDTDTNSVTSDPKPHPFVPSVSENKILNRSFSLTRSLKGLALSLAGSDRASELLSLNGENKPAESNLNHLTSAKVPGPPAFNELEYQSELDMPLTSYLFDWSRKYFTEPQMRPNEDDEPGSICYNQRLWRRNRNEKLIYRTRPLAEYSTNGRWNQQLMTFNNTIAPRKLMFHQFEDQLITLGDKDIIQVWDWRRNRCLNSFKTSASATTNVTDMQLLNEDDVALLMTGSSDGTIKLYRDYENEKVELVTSWNSLSDLVFGDRNASLLMSWQQNCGHLLVAGDVRVIRIWDASKEICYANLPVRSSNSITSLTSDLVGCNIIVAGFSDGVLRVYDKRLPARDSLTDVWKEHSSEIVNVEMQSSGMRELISASSDGEVKLWDIRMNHSLQTFSTDNSGLTSLTVHSHAPVYATGSSNQSIKIWDTLGQNINTFRENPRFLNQPKPSSLMCLKFHPHHLLLACGDNTDSRVNLYSCTKNEIHTDSPNEF
chain 2: MKEFPGLKSRNEEIRNKAANDLYEYVIAYSRELSGEALVQFNNDVNKYVYTLIHSTDPLDRLAGVTAINRLIDYEGEDTTRITRFANYLRIILPGTDQKATVLAAKALGRLAVPGGALTSEFVNFEVKRALEWLQGERNENRRYAAVLILKELAKNTSTLIYAHIDSIFELLWHGLRDPKVTIRIASADALSEFLKIVRQRDSSIRLQWYTSILNEAQRGVAQGSSDYIHGSLLVYRQLFLKAGMFMHERYREVSDIILQFRDHKDLLIRKTVTELIATLAAYNPDEFVSNYLHVCMLHLLNLLKKENVKMLAFATIGKVAVAITNSIIPYLDPICDSIKESLKIHIRNKSASDAAIFQCISLLSIALGQAFSNYAYDLFDLIFASGLSEASYRALSDLAHNIPPLLPVIQERLLDMLSKILSGRPFIPPGCPPQYVARSLKSSKSASLKTGFFPNDVYILALKVLGNFDFSGYILNEFVKDCVVVYLENNDPEVRKTASITCSQLFARDPILSQTSDHAIQVVAEVLEKLLTVGICDTVPDIRLTVLNSLDSRFNKHLAQADKIRLLFIAINDENFAVRESALRIIGRLNVYNPAYVMPYLRKIMLKTLTILDYSTIIRTKEENAKLLCLLIAAAPRLIESHVEPILQILLPKAKDSSSIVAASIVNSLGEICQISGEVIVPFIKDLMPLIIEALQDQSSPIRRAAALKALGNLSSSTGYVIDPYIEFPSLLDILIGITKTEQDITIRRETIKLIGTLGALDPNRHRVLEKGTEKVVPEQKNIPPDISLLMSGIGPSSDEYYPTVVITALMSILKDPSLTIHHTAVIQAVMYIFKTMGLRCAPFLSQIIPEFIAVMRTCPTNILEFYFQQLSILVLIVRQHIRSFLPDLFKLIKDFWNPHSNLQFTILSLIESLARAMQGEFKPYLPSLLVMMLQIFDSDVSVDSVSTKKVLHAFIVFGDTLADYFHMLLDPILRLYERNDVSIGIKESIMITIGRLSMVINLSEYASRIIHPVMRMLSCNNASLIRVSMDTVCALIYQLNVDFAIFIPMIDKCLKMNGVTHETYSILVEQFLQEQPLPIKLNPYEKYDKPKLDVVASAADITSKKLPVNQEILRNAWEASQRSTKDDWQEWIRRLGVALLRESPSHALRACAALAAAYQPLARDLFNASFVSCWSELYDHFQEELVKSIEIALTSPHISPEIIQILLNLAEFMEHDDKPLPIDIRTLGAYAAKCHAFAKALHYKELEFIEEELVTKPSVDTIEALISINNQLQQPDAAIGILKHAQQHDKMNLKETWYEKLQRWEDALSAYEKREAAGAGNFEITMGKLRCLHALGEWDRLSQLAQENWIHAGHDARRYIAPLSVAAAWGLGQWEQMDEYISVMKSESPDKAFFNAIVALHRSQFEEAASYITRARDLLDTELTALVGESYNRAYSVAVRVQMLSELEEIITYKKAEDKPEVREMIKKTWVRRLKGCQRNVDVWQRMLRIRSLVISPRDNMEMWIKFANLCRKSGRISLAKKSLNLLLEDDENLDNSLVLKKTHPSIVYANLKFLWAVDDKRKALNSMQEFTSQLISDINVDPALFVQSTSVNTQKSQEEIQYYFHLLARCYHKQGQWQQEIENNWSEGSFDGVLQSYMYATQFDSKWYKAWHSWALANFEAVKFLEQSEEQIPSAAYEQYIIPAVKGFFKSIALSKGNLQDTLRLLNLWFKFGNNSNVINTLNVGISTVNIDIWLDVIPQLIARIHASSLSVRKSVHQLLSDVGRAHPQALVYPLTVAAKSQSSARQNAALAIMDSLKTHSPRLVEQARLVSHELIRAAILWHEQWHEGLEEASRLYFGDHNIEGMFAVLRPLHEMLERGPETLREISFQQAFGRDLVEARDCCIRFEQTGDISDLNQAWDLYYQVFKKIRKQLPQLTTLDLQYVSPKLLHVHDLELAVPGTYVSGKPVIRIVKFYPTFNVITSKQRPRRLSIKGSDGKDYQYVLKGHEDIRQDERVMQLFGLCNNLLLADPETFKRLLSIQRYPVIPLSPDSGLLGWVLDSDTLHVLIRDYRESRKILLNIEHRLIIQMAPDYDRLTLLQKVEVFEYALLSTTGQDLYRVLWLKSRSSEAWLNRRTNYSRTLAVMSMVGYILGLGDRHPSNLMLDRYTGNIIHIDFGDCFEVAMHREKFPEKIPFRLTRMLVNAMEVSGIEGTFRITCEHVMRVLRTNKESVMAVLEAFVYDPLINWRLAPAYSPSIDEKQSNEPNTLLGETIDGLHRKRLNEEGITLEERQKPEILNQRAITVLNRVSNKLTGRDFKPQQQLDVPSQVEKLILQATSIENLCLCYIGWCSFW

Variants of B1 are the subject of the assay. Put plainly: co-immunoprecipitation (anti-FLAG affinity beads) with quantified immunoblot; n=3 independent experiments; parent: 1; read off a plot. (In western blotting, separated proteins are transferred to a membrane and probed.)
Turning to chain 1 R358A, the ratio to parent was around 0.42.

With chain 1 R504A, the ratio to parent was around 0.53.

chain 1 Y533A: the ratio to parent was around 0.9.
